Test [1] has as its target T1, Recombinant human CD123 SP2 ECD protein (human, UniProt P26951 101-303).
T1 construct: also called rhCD123 SP2; CD123 ECD SP2
T1 sequence: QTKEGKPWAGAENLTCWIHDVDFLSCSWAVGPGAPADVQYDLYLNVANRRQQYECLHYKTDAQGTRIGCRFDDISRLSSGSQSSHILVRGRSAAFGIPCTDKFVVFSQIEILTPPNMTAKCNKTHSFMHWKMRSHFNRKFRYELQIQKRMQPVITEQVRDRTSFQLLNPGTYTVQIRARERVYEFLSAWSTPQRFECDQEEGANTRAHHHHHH
The test is described as follows: SPR ProteOn, captured mAb. The method, then:
(§1) The biosensor surface was prepared by covalently coupling Goat anti-Human IgG (Fc) to the surface of a GLC chip (BioRad) using the manufacturer instructions for amine-coupling chemistry. […] The RU immobilized also included a goat anti-mouse Fc antibody that was added to capture other antibodies not included in the ones reported here. Since the mixture was 1:1 about 50% of these RU immobilized are expected to be goat anti-human Fc. The kinetic experiments were performed at 25° C. in running buffer (PBS pH 7.4, 0.005% P20, 3 mM EDTA). […] The reference spots (Goat anti-Human IgG (Fc)-modified surface) containing no candidate captured were used as a reference surface. Capture of mAb was followed by 3 min injection (association phase) of antigen at 40 μL/min, followed by 10 min of buffer flow (dissociation phase). […] Data was processed on the instrument software. Double reference subtraction of the data was performed by subtracting the curves generated by buffer injection from the reference-subtracted curves for analyte injections. Kinetic analysis of the data was performed using 1:1 Langmuir binding model with group fit. The result for each mAb was reported in the format of Kₐ (kon or on-rate), Kd (koff or off-rate), KD (Equilibrium dissociation constant) (Table 5).

Test [2] addresses T2, Recombinant human CD123 SP1 ECD-His tag protein (human, UniProt P26951 20-305).
T2 construct: bought from R&D Systems (#301-R3/CF); biotinylated for some assays; also called rhCD123 SP1; huCD123 ECD SP1
T2 sequence: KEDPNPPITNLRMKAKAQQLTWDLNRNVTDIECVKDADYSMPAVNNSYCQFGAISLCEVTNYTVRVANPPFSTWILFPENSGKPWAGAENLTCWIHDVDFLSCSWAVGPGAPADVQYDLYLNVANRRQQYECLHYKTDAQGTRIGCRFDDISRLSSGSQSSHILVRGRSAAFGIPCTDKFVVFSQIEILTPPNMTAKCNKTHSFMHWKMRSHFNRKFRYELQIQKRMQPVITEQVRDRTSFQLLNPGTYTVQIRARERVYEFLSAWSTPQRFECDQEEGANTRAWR
The test can be described thus: SPR ProteOn, captured mAb. Here is the method:
as §1

Test [3] has as its target T3, human CD123 SP2 ECD displayed on pDisplay-transfected cells (human, UniProt P26951 101-305).
T3 construct: ECD anchored on the surface of stably transfected HEK293 cells; also called hCD123 SP2 cells; pDisplay CD123SP2
T3 sequence: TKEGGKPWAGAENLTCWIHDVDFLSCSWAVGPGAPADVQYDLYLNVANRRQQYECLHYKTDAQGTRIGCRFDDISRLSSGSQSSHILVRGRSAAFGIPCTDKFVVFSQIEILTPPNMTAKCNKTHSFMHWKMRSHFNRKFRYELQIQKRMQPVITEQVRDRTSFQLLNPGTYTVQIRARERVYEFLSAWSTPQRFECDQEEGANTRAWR
The test can be described thus: MSD cell binding on 293F pDisplay cells; fold change over background; parental 293F cells as control. Here is the method:
(§2) The object of the screening assay was to identify antibodies that bound to cells expressing hCD123 SP1 and SP2 as well as cross reactivity with cells expressing cynoCD123 SP1.
(§3) Cells were immobilized and phages were assayed in triplicate. […] 5000 cells per well were plated into a 384 well plate (MA6000, cat. L21XB, MSD) and allowed to adhere for 2 hr. Cells were then blocked with 20% FBS in PBS (Gibco) for 15 mins. Antibody supernatants were then added and left at RT for 1 hr. Cells were washed 3 times with PBS and a ruthenium labeled secondary antibody (Jackson Immuno Research) was then added at 1 μg/mL and incubated for 1 hr at room temperature. A further washing step was then applied and 35 μL per well of MSD Read buffer T (surfactant free) was then added and incubated for 30 min for detection. Plates were then read using Sector Imager 2400 (MSD). Data was normalized to controls and graphed using GraphPad Prism Version 5. A positive binder was determined to be a hit with a signal 3× greater than background (FIGS. 2A, B and C).

Test [4] deals with T4, cyno CD123 ECD displayed on pDisplay-transfected cells (cynomolgus monkey).
T4 construct: ECD anchored on the surface of stably transfected HEK293 cells; also called cynoCD123 SP1 cells; cynoCD123 cells
T4 chain: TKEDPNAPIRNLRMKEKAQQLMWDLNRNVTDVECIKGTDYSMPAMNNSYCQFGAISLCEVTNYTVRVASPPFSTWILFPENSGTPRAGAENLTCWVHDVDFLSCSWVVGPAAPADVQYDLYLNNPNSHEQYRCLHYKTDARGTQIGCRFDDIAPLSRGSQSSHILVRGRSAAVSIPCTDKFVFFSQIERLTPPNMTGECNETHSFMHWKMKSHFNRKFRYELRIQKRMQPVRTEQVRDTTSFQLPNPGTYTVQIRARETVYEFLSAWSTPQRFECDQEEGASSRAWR
The description is as above. Here is the method: as §2, §3

The target of test [5] is T5, cell-surface CD3 epsilon on primary cynomolgus T cells (cynomolgus monkey, UniProt Q95LI5 22-198).
T5 construct: whole, on cells; also called cynomolgus CD3e; Cyno T-cells
The test can be described thus: flow cytometry competition with labeled CD3B146 on T cells. From the text:
(§4) The format involved competition binding using a fixed concentration of labeled anti-CD3 mAb of known affinity and increasing concentrations of unlabeled test Abs (Ashkenazi A et al. PNAS: 88:10535, 1991.).
For orientation: In flow cytometry, cells or beads pass a laser one at a time.

For test [6], the target named is T6, cell-surface CD3 epsilon on primary human T cells (human, UniProt P07766 23-207).
T6 construct: whole, on cells; part of the CD3/TCR complex on the cells
The test is described as above.
Source text: as §4

We go through 7 molecules from patent US20160068605A1 (Janssen / Centocor, published 2016).

One may read the Kd as the free concentration of one partner at which half of the binding sites on the other are occupied at equilibrium, for simple one-to-one binding. In general, koff refers to the rate constant with which the complex falls apart. By kon is commonly meant a measure of how fast the partners come together.

T5 sequence (Q95LI5 22-198): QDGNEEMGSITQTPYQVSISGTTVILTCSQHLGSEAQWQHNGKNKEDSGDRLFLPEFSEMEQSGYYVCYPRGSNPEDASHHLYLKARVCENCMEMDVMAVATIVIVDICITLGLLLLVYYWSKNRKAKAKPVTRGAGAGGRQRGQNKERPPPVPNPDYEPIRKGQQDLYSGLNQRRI
T6 sequence (P07766 23-207): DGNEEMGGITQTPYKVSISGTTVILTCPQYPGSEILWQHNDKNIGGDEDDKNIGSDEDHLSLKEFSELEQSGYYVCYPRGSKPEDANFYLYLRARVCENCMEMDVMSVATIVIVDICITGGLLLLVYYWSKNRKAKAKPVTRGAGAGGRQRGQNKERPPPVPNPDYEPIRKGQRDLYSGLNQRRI

B1: I3RB38 (antibody, IgG1, V domains shown)
VH: QVQLVQSGAEVKKPGSSVKVSCKASGGTFSSYGISWVRQAPGQGLEWMGGIIPIFGTANYAQKFQGRVTITADESTSTAYMELSSLRSEDTAVYYCARDLMIWRFENFDYWGQGTLVTVSS
VL: not shown
notes: IgG1
As for B1, the binding result in test [1] is given as “no binding (tested: 400 nM)”. In test [2], the Kd turned out to be 0.49 nM, the koff came out at 0.000434 s⁻¹ and the on-rate (kon) came out at 888000 M⁻¹ s⁻¹. Also, the binding result in test [3] is given as “no binding (tested: 10 µg/mL)”.

B2: I3RB34 (antibody, IgG1, V domains shown)
VH: QVQLVQSGAEVKKPGSSVKVSCKASGGTFSSYAISWVRQAPGQGLEWMGGIIPIFGTANYAQKFQGRVTITADESTSTAYMELSSLRSEDTAVYYCARGWSYYRLDYWGQGTLVTVSS
VL: EIVLTQSPATLSLSPGERATLSCRASQSVDKWLAWYQQKPGQAPRLLIYYASNRATGIPARFSGSGSGTDFTLTISSLEPEDFAVYYCQQFDRAPFTFGQGTKVEIK
notes: IgG1; also called 13RB34
Consider B2, for which, in test [1], the binding result is reported as “no binding (tested: 400 nM)”. In addition, in test [2], the Kd amounted to 56.8 nM, the koff is 0.0283 s⁻¹ and the association rate constant (kon) amounted to 497000 M⁻¹ s⁻¹. Further, the binding result in test [3] was “no binding (tested: 10 µg/mL)”. Besides, the binding result in test [4] is reported as “binds”.

B3: CD123 null 1 (bispecific antibody, human IgG4 S228P, lambda, F234A L235A)
heavy: EVQLVESGGGLVQPGGSLRLSCAASGFTFNTYAMNWVRQAPGKGLEWVARIRSKYNNYATYYAASVKGRFTISRDDSKNSLYLQMNSLKTEDTAVYYCARHGNFGNSYVSWFAYWGQGTLVTVSSASTKGPSVFPLAPCSRSTSESTAALGCLVKDYFPEPVTVSWNSGALTSGVHTFPAVLQSSGLYSLSSVVTVPSSSLGTKTYTCNVDHKPSNTKVDKRVESKYGPPCPPCPAPEAAGGPSVFLFPPKPKDTLMISRTPEVTCVVVDVSQEDPEVQFNWYVDGVEVHNAKTKPREEQFNSTYRVVSVLTVLHQDWLNGKEYKCKVSNKGLPSSIEKTISKAKGQPREPQVYTLPPSQEEMTKNQVSLTCLVKGFYPSDIAVEWESNGQPENNYKTTPPVLDSDGSFLLYSKLTVDKSRWQEGNVFSCSVMHEALHNHYTQKSLSLSLGK
light: QTVVTQEPSLTVSPGGTVTLTCRSSTGAVTTSNYANWVQQKPGQAPRGLIGGTNKRAPGTPARFSGSLLGGKAALTLSGVQPEDEAEYYCALWYSNLWVFGGGTKLTVLGQPKAAPSVTLFPPSSEELQANKATLVCLISDFYPGAVTVAWKADSSPVKAGVETTTPSKQSNNKYAASSYLSLTPEQWKSHRSYSCQVTHEGSTVEKTVAPTECS
VH: not shown
VL: not shown
notes: also called B21M IgG4 x CD3B219
Turning to B3, the Kd in test [5] came to 13.4 nM; in test [6] it was 13.2 nM.

B4: CD123 null 3 (bispecific antibody, human IgG4 S228P, lambda, F234A L235A)
heavy: EVQLLESGGGLVQPGGSLRLSCAASGFTFNTYAMNWVRQAPGKGLEWVARIRSKYNNYATYYADSVKGRFTISRDNSKNTLYLQMNSLRAEDTAVYYCVKHGNFGNSYVSWFAYWGQGTLVTVSSASTKGPSVFPLAPCSRSTSESTAALGCLVKDYFPEPVTVSWNSGALTSGVHTFPAVLQSSGLYSLSSVVTVPSSSLGTKTYTCNVDHKPSNTKVDKRVESKYGPPCPPCPAPEAAGGPSVFLFPPKPKDTLMISRTPEVTCVVVDVSQEDPEVQFNWYVDGVEVHNAKTKPREEQFNSTYRVVSVLTVLHQDWLNGKEYKCKVSNKGLPSSIEKTISKAKGQPREPQVYTLPPSQEEMTKNQVSLTCLVKGFYPSDIAVEWESNGQPENNYKTTPPVLDSDGSFLLYSKLTVDKSRWQEGNVFSCSVMHEALHNHYTQKSLSLSLGK
light: QTVVTQEPSLTVSPGGTVTLTCRSSTGAVTTSNYANWVQQKPGQAPRGLIGGTNKRAPGTPARFSGSLLGGKAALTLSGVQPEDEAEYYCALWYSNLWVFGGGTKLTVLGQPKAAPSVTLFPPSSEELQANKATLVCLISDFYPGAVTVAWKADSSPVKAGVETTTPSKQSNNKYAASSYLSLTPEQWKSHRSYSCQVTHEGSTVEKTVAPTECS
VH: not shown
VL: not shown
notes: also called B21M IgG4 x CD3B218
With B4, the equilibrium dissociation constant (Kd) came out at 237 nM in test [5] and 200 nM in test [6].

B5: CD123 null 4 (bispecific antibody, human IgG4 S228P, lambda, F234A L235A)
heavy: EVQLVESGGGLVQPGGSLKLSCAASGFTFNTYAMNWVRQASGKGLEWVGRIRSKYNAYATYYAASVKGRFTISRDDSKNTAYLQMNSLKTEDTAVYYCTRHGNFGNSYVSWFAYWGQGTLVTVSSASTKGPSVFPLAPCSRSTSESTAALGCLVKDYFPEPVTVSWNSGALTSGVHTFPAVLQSSGLYSLSSVVTVPSSSLGTKTYTCNVDHKPSNTKVDKRVESKYGPPCPPCPAPEAAGGPSVFLFPPKPKDTLMISRTPEVTCVVVDVSQEDPEVQFNWYVDGVEVHNAKTKPREEQFNSTYRVVSVLTVLHQDWLNGKEYKCKVSNKGLPSSIEKTISKAKGQPREPQVYTLPPSQEEMTKNQVSLTCLVKGFYPSDIAVEWESNGQPENNYKTTPPVLDSDGSFLLYSKLTVDKSRWQEGNVFSCSVMHEALHNHYTQKSLSLSLGK
light: QAVVTQEPSLTVSPGGTVTLTCRSSTGAVTTSNYANWVQQKPGQAPRGLIGGTNKRAPGTPARFSGSLLGGKAALTLSGAQPEDEAEYYCALWYSNLWVFGGGTKLTVLGQPKAAPSVTLFPPSSEELQANKATLVCLISDFYPGAVTVAWKADSSPVKAGVETTTPSKQSNNKYAASSYLSLTPEQWKSHRSYSCQVTHEGSTVEKTVAPTECS
VH: not shown
VL: not shown
notes: also called B21M IgG4 x CD3B220
As to B5, the Kd was determined as 36.8 nM in test [5] and 48.6 nM in test [6].

B6: I3RB29 (antibody, IgG1, V domains shown)
VH: QVQLVQSGAEVKKPGSSVKVSCKASGGTFSSYAISWVRQAPGQGLEWMGGIIPIFGTANYAQKFQGRVTITADESTSTAYMELSSLRSEDTAVYYCARDSRIWSFSLDYWGQGTLVTVSS
VL: DIQMTQSPSSLSASVGDRVTITCRASQSIGEWLNWYQQKPGKAPKLLIYAASSLQSGVPSRFSGSGSGTDFTLTISSLQPEDFATYYCQQYYHFPLTFGQGTKVEIK
notes: IgG1
Consider B6, for which the binding result in test [1] is recorded as “no binding (tested: 400 nM)”. Moreover, in test [2], the Kd was found to be 5.9 nM, the koff stood at 0.00132 s⁻¹ and the on-rate constant (kon) is 224000 M⁻¹ s⁻¹. Moreover, in test [3], the binding result is on record as “no binding (tested: 10 µg/mL)”.

B7: I3RB7 (antibody, IgG1, V domains shown)
VH: QVQLVQSGAEVKKPGSSVKVSCKASGGTFSSYAISWVRQAPGQGLEWMGGIIPIFGTANYAQKFQGRVTITADESTSTAYMELSSLRSEDTAVYYCARGKRWLADAGDFDYWGQGTLVTVSS
VL: not shown
notes: IgG1; also called I3RB07
Take B7: in test [1], the binding result was “no binding (tested: 400 nM)”. In addition, in test [2], the Kd worked out at 15.4 nM, the koff amounted to 0.0147 s⁻¹ and the kon was 954000 M⁻¹ s⁻¹. Further, the binding result in test [3] is “no binding (tested: 10 µg/mL)”.
